The values below are quoted from earlier work in article PMC11449013.

In this series the target is His128 (UniProt position 179, FICPCHGSQYN).

Like-named read-outs stand apart in the source and are kept apart here.

In the case of “Cytochrome b6f complex Rieske iron-sulfur protein (ISP, PetC) (Spinacia oleracea (residue numbering; the article does not state the species in which the quoted values were measured))”, the pKa entry runs as follows: (2Fe2S cluster oxidised) “∼6.2”; (2Fe2S cluster reduced) “∼8”.
